B1: Cbl-binding domain of the alpha subunit of Methylobacterium extorquens methylmalonyl-CoA mutase (domain or fragment, UniProt C5AV67 545-712, looked up)
chain: RAQIRSISGVYKREVGGMSPVVEKVRGLVEAFEENDGRRPRILVAKMGQDGHDRGQKVIASAFADLGFDVDIGPLFATPDEAARQAVENDVHIVGVSSLAAGHLTLVPELKAALKQEGRDDVMIVVGGVIPPGDYDALYAAGASAIFPPGTVIAEAAVNLLGELNTRL
notes: alpha subunit has 712 residues; Two constructs were made (N-terminal HisTag, of low solubility; C-terminal HisTag in pET28a at NcoI and XhoI); The crystal holds the C-terminal HisTag form (residues 713 to 714 of the tag modelled in chain C); the same form is surmised for the SEC and GTPase experiments; also called MeMCMcbl; MCMcbl; source: E. coli Bl21 T7 Express, purified (Ni-NTA, Superdex75 …)
B2: MeaB from Methylobacterium extorquens (natural protein, UniProt Q8RPA0 1-329, looked up)
chain: MSATLPDMDTLRERLLAGDRAALARAITLAESRRADHRAAVRDLIDAVLPQTGRAIRVGITGVPGVGKSTTIDALGSLLTAAGHKVAVLAVDPSSTRTGGSILGDKTRMARLAIDRNAFIRPSPSSGTLGGVAAKTRETMLLCEAAGFDVILVETVGVGQSETAVADLTDFFLVLMLPGAGDELQGIKKGILELADMIAVNKADDGDGERRASAAASEYRAALRILTPPSATWTPPVVTISGLHGKGLDSLWSRIEGHRSKLTATGEIAGKRREQDVKWMWALVHERLHQRLVGSAEVRQATAEAERAVAGGEHSPAAGADAIATLIGL
notes: MeaB, G-protein chaperone of methylmalonyl-CoA mutase, Methylobacterium extorquens, WP_003597297.1; 329 residues (Met1 to Leu329 of 329 named in the model of chain B); Synthetic gene in pET28a at NdeI and XhoI; also called G-protein metallochaperone MeaB; source: E. coli Bl21 T7 Express, purified (Ni-NTA, Superdex 200 SEC)

Experiments:
[1] = biological target: B2; test: SEC; analytical Superdex200 Increase 10/300 GL; 50 µM MeaB and 100 µM MeMCMcbl preincubated with 500 µM GMPPCP and 1 mM MgCl2; 50 mM HEPES pH 7.5, 500 mM NaCl; peaks identified by SDS-PAGE; conditions: both partners purified
[2] = biological target: B2; test: cell-based or functional assay
[3] = biological target: the molecule itself; test: SEC; analytical Superdex200 Increase 10/300 GL; each protein alone (50 µM MeaB); apparent molecular weights against gel filtration standards; 50 mM HEPES pH 7.5, 500 mM NaCl

Row | Binder | stoichiometry N [1] | GTPase activity of MeaB (2 µM) with MeMCMcbl (4 µM), 500 µM GTP: inorganic phosphate produced, against MeaB alone [2] | stoichiometry N [3]
1 | B1 | 1 MeMCMcbl dimer per MeaB dimer | 25 fold | 2
2 | B2 |  |  | 2

— article PMC9974510, “Structure of metallochaperone in complex with the cobalamin-binding domain of its target mutase provides insight into cofactor delivery” (Proceedings of the National Academy of Sciences of the …, 2023)
